Reference: patent publication US20120148607A1 (ARGEN X N V, published 2012)

B1: 20F1 Fab (Fab, V domains shown)
VH: EVQVQESGPGLVKPSQTLSLTCTVSGGSMTGNYYAWSWIRQPPGKGLEWMGVIAYDGSTYYSPSLKSRTSISRDTSKNQFSLQLSSVSPEDTAVYYCARGPGWYSGSRNDYWGQGTQVTVSS
VL: QSALTQPPSVSGSPGKTVTISCTGTNSDVGYGNYVSWYQQLPGMAPKLLIYDVNRRASGIADRFSGSKSGNTASLTISGLQSEDEGDYHCASYRSANNAVFGGGTHLFVL
notes: Fab from the phage display library, tested as periplasmic extract
B2: 12G4 Fab (Fab, V domains shown)
VH: QLQLVESGGGMAQPGGSLKLSCAASGFTFDDYAMTWVRQAPGKGLEWLSTISWNDINTYYAESMKDRFTISRDNAKNTLYLQMNSLESEDTAVYYCAKRRDNYYGTSGEYDYWGQGTQVTVSS
VL: QSALTQPPSVSGTLGKTVTISCAGTSSDIGNYNYVSWYQQLPGTAPKLLIYEVNKRPSGIPDRFSGSKSGNTASLSISGLQSEDEADYYCASYRSSNNVVFGGGTKLTVL
notes: as for B1
B3: 13E6 Fab (Fab, V domains shown)
VH: QVQLQESGGDLVQPGGSLRLSCAASGFTFDDYVMNWVRQAPGKGLEWISAINWNGGSTYYAESMKGRFTISRDNAKNTLYLQMYSLQSDDTAVYYCVKDTVVSGNGYWGQGTQVTVSS
VL: QSVLTQPPSVSGTLGKTVTISCAGTSSDIGDYNYVSWYQQLPGTAPKLLIYDVNKRASGIPDRFSGSKSGNTASLSISGLQSEDEADYYCASYRSRNDYAFGGGTKLTVL
notes: as for B1
B4: 36C4Q Fab (Fab, V domains shown)
VH: QVQLVESGPGLVKPSQTLSLTCAVSGGSITTNYYYWSWIRQSPGKGLEWMGVIAYDGSTDYSPSLKSRTSISRDTSKNQFSLQLSSVTPEDTAVYYCARDVRVIATGWATANALDAWGQGTQVTVSS
VL: QSVLTQPPSVSGSPGKTVTISCAGTSSDVGYGNYVSWYQQLPGTAPKLLIFAVSYRASGIPDRFSGSKSGNTAFLTISGLQSEDEADYYCASYRSSNNAAVFGGGTHLTVL
B5: 49D3 VL shuffled Fab (Fab, V domains shown)
VH: QVQLVESGPGLVKPSQTLSLTCAVSGGSITTNYYYWSWIRQSPGKGLEWMGVIAYDGSTDYSPSLKSRTSISRDTSKNQFSLQLSSVTPEDTAVYYCARDVRVIATGWATANALDAWGQGTQVTVSS
VL: LPVLTQPPSVSGTLGKTLTISCAGTSSDVGYGNYVSWYQQLPGTAPKLLIYAVSYRASGIPDRFSGSKSGNTASLSISGLQSEDEADYYCASYRSSNKNAVFGGGTHLTVL
notes: VL-shuffled Fab with the 36C4Q heavy chain, periplasmic extract
B6: 49E11 VL shuffled Fab (Fab, V domains shown)
VH: QVQLVESGPGLVKPSQTLSLTCAVSGGSITTNYYYWSWIRQSPGKGLEWMGVIAYDGSTDYSPSLKSRTSISRDTSKNQFSLQLSSVTPEDTAVYYCARDVRVIATGWATANALDAWGQGTQVTVSS
VL: QAVLTQPPSVSGTLGKTVTISCAGTSSDVGYGNYVSWYQKLPGTAPKLLIYAVSYRASGIPDRFSGSKSGNTASLTISGLQSEDEADYHCASYRTSNNVAVFGGGTKLTVL
notes: as for B5
B7: 49C4 VL shuffled Fab (Fab, V domains shown)
VH: QVQLVESGPGLVKPSQTLSLTCAVSGGSITTNYYYWSWIRQSPGKGLEWMGVIAYDGSTDYSPSLKSRTSISRDTSKNQFSLQLSSVTPEDTAVYYCARDVRVIATGWATANALDAWGQGTQVTVSS
VL: QSALTQPPSVSGTLGKTVTISCAGTSSDVGYGNYVSWYQKLPGTAPKLLIYAVTYRASGIPDRFSGSKSGNTASLTISGLQSEDEADYYCASYRRSTNVGVFGGGTHLTVL
notes: as for B5
B8: 49D2 VL shuffled Fab (Fab, V domains shown)
VH: QVQLVESGPGLVKPSQTLSLTCAVSGGSITTNYYYWSWIRQSPGKGLEWMGVIAYDGSTDYSPSLKSRTSISRDTSKNQFSLQLSSVTPEDTAVYYCARDVRVIATGWATANALDAWGQGTQVTVSS
VL: QSVLTQPPSVSGTLGKTLTISCAGTSTDVGYGNYVSWYQQLPGTAPKLLIFAVSYRASGIPDRFSGSKSGNTAFLTISGLQSEDEADYYCASYRSSNNAAVFGGGTHLTVL
notes: as for B5
B9: 49G3 VL shuffled Fab (Fab, V domains shown)
VH: QVQLVESGPGLVKPSQTLSLTCAVSGGSITTNYYYWSWIRQSPGKGLEWMGVIAYDGSTDYSPSLKSRTSISRDTSKNQFSLQLSSVTPEDTAVYYCARDVRVIATGWATANALDAWGQGTQVTVSS
VL: QSALTQPPSVSGTLGKTLTISCAGTSTDVGYGNYVSWYQQLPGTAPKLLIFAVSYRASGIPDRFSGSKSGNTAFLTISGLQSEDEADYYCASYRSSNNAAVFGGGTHLTVL
notes: as for B5
B10: 49A11 VL shuffled Fab (Fab, V domains shown)
VH: QVQLVESGPGLVKPSQTLSLTCAVSGGSITTNYYYWSWIRQSPGKGLEWMGVIAYDGSTDYSPSLKSRTSISRDTSKNQFSLQLSSVTPEDTAVYYCARDVRVIATGWATANALDAWGQGTQVTVSS
VL: QSALTQPPSVSGSPGKTVTISCAGTSSDVGYGNYVSWYQKLPGTAPKLLIYAVSYRASGIPDRFSGSRSGNTASLTISGLQSEDEADYYCASYRITNRHSVFGGGTHLTVL
notes: as for B5
B11: 49A1 VL shuffled Fab (Fab, V domains shown)
VH: QVQLVESGPGLVKPSQTLSLTCAVSGGSITTNYYYWSWIRQSPGKGLEWMGVIAYDGSTDYSPSLKSRTSISRDTSKNQFSLQLSSVTPEDTAVYYCARDVRVIATGWATANALDAWGQGTQVTVSS
VL: QSVLTQPPSVSGSPGKTVTISCAGTSSDVGYGNYVSWYQQLPGTAPKLLIFAVSYRASGIPDRFSGSKSGNTAFLTISGLQSEDEADYYCASYRSSNNAAVFGGGTHLTVL
notes: as for B5
B12: 48A1 VL shuffled Fab (Fab, V domains shown)
VH: EVQLVQPGVELRNPGASVKVSCKASGYIFTMNSIDWVRQAPGQGLEWMGRIDPEDGGTKYAQKFQGRVTFTADTSTSTAYVELNSLRSEDTAVYYCARVDDYYLGYDYWGQGTQVTVSS
VL: EIVMTQSPSSVTASAGEKVTINCKSSQSVLWRSNQKNYLAWYQQRLGQSPRLLISWASIRESGVPDRFSGSGSTTDFTLTISSFQPEDAAVYYCQQGYSFPYTFGSGTRLEIK
notes: VL-shuffled Fab with the 38H10 heavy chain, periplasmic extract; The printed 48A1 VK reads the same as the 38H10 VK
B13: 48A11 VL shuffled Fab (Fab, V domains shown)
VH: EVQLVQPGVELRNPGASVKVSCKASGYIFTMNSIDWVRQAPGQGLEWMGRIDPEDGGTKYAQKFQGRVTFTADTSTSTAYVELNSLRSEDTAVYYCARVDDYYLGYDYWGQGTQVTVSS
VL: DIVMTQTPSSVTAAVGEKVAINCKSSQSVLYNPNQKSYLAWYQQRPGQSPRLLIYWASTRESGVPDRFSGSGSTTDFALTISSFQPEDAAVYYCQQGYSFPYSFGSGTRLEIR
notes: VL-shuffled Fab with the 38H10 heavy chain, periplasmic extract
B14: 48B6 VL shuffled Fab (Fab, V domains shown)
VH: EVQLVQPGVELRNPGASVKVSCKASGYIFTMNSIDWVRQAPGQGLEWMGRIDPEDGGTKYAQKFQGRVTFTADTSTSTAYVELNSLRSEDTAVYYCARVDDYYLGYDYWGQGTQVTVSS
VL: DIQLTQSPSSVTASAGEKVTINCKSSQSVLYGSNQKNYLAWYQQRLGQSPRLLIYWASTRESGVPDRFSGSGSTTDFTLTISSFQPEDAAVYYCQQGWSFPYTFGSGTRLEIK
notes: as for B13
B15: 48E5 VL shuffled Fab (Fab, V domains shown)
VH: EVQLVQPGVELRNPGASVKVSCKASGYIFTMNSIDWVRQAPGQGLEWMGRIDPEDGGTKYAQKFQGRVTFTADTSTSTAYVELNSLRSEDTAVYYCARVDDYYLGYDYWGQGTQVTVSS
VL: DIQMTQSPSSVTASAGEKVTINCKSSQSVLYNSNQKNYLAWYQQRLGQSPRLLIYWASTRESGVPDRFSGSGSTTDFTLTISSFQPEDAAVYYCQQGWSFPYTFGSGTRLEIK
notes: as for B13
B16: 48D2 VL shuffled Fab (Fab, V domains shown)
VH: EVQLVQPGVELRNPGASVKVSCKASGYIFTMNSIDWVRQAPGQGLEWMGRIDPEDGGTKYAQKFQGRVTFTADTSTSTAYVELNSLRSEDTAVYYCARVDDYYLGYDYWGQGTQVTVSS
VL: DIVMTQTPSSVTASAGEKVTINCKSSQSVLYNSNQKNYLAWYQQRLGQSPRLLIYWASTRESGVPDRFSGSGSTTDFTLTISSFQPEDAAVYYCQQGWSFPYTFGSGTRLEIK
notes: as for B13
B17: 48E2 VL shuffled Fab (Fab, V domains shown)
VH: EVQLVQPGVELRNPGASVKVSCKASGYIFTMNSIDWVRQAPGQGLEWMGRIDPEDGGTKYAQKFQGRVTFTADTSTSTAYVELNSLRSEDTAVYYCARVDDYYLGYDYWGQGTQVTVSS
VL: DVVMTQSPSSVTASAGEKVTINCKSSQSVLWSSNQKNYLAWYQQRVGQSPRLLIYWASTRESGVPDRFSGSGSTTDFTLTISNFQPEDAAVYYCQQGYSFPYSFGSGTRLEIR
notes: as for B13
B18: 48B8 VL shuffled Fab (Fab, V domains shown)
VH: EVQLVQPGVELRNPGASVKVSCKASGYIFTMNSIDWVRQAPGQGLEWMGRIDPEDGGTKYAQKFQGRVTFTADTSTSTAYVELNSLRSEDTAVYYCARVDDYYLGYDYWGQGTQVTVSS
VL: DVVMTQSPSSVTASVGEKVTINCKSSQSVLYTSNHKNYLAWYQQRLGQSPRLLIYWASTRESGVPDRFSGSGSTTDFTLTISSFQPEDAAVYYCQQGWSFPYSFGSGTRLEIK
notes: as for B13
B19: 48C8 VL shuffled Fab (Fab, V domains shown)
VH: EVQLVQPGVELRNPGASVKVSCKASGYIFTMNSIDWVRQAPGQGLEWMGRIDPEDGGTKYAQKFQGRVTFTADTSTSTAYVELNSLRSEDTAVYYCARVDDYYLGYDYWGQGTQVTVSS
VL: DIQLTQSPSSVTVSVGEKVTINCKSSQSVLYNSNQKNYLAWYQQRLGQSPRLLIYWASTRESGVPDRFSGSGSTTDFTLTISSFQPEDAAVYYCQQGWSFPYTFGSGTRLEIK
notes: as for B13
B20: 48D7 VL shuffled Fab (Fab, V domains shown)
VH: EVQLVQPGVELRNPGASVKVSCKASGYIFTMNSIDWVRQAPGQGLEWMGRIDPEDGGTKYAQKFQGRVTFTADTSTSTAYVELNSLRSEDTAVYYCARVDDYYLGYDYWGQGTQVTVSS
VL: DIVMTQTPASVTASAGEKVTINCKSSQSVLFSSNQKNYLAWYQQRVGQSPRLLIYWASTRESGVPDRFSGSGSTTDFTLTISNFQPEDAAVYYCQQGYSFPYSFGSGTRLEIR
notes: as for B13

Target: T1, recombinant dimeric c-Met (R&D systems, 358-MT/CF) (human, UniProt P08581 25-932)
T1 construct: Bought product; also called Fc-Met; recombinant c-Met
T1 sequence (P08581 25-932 limits assumed): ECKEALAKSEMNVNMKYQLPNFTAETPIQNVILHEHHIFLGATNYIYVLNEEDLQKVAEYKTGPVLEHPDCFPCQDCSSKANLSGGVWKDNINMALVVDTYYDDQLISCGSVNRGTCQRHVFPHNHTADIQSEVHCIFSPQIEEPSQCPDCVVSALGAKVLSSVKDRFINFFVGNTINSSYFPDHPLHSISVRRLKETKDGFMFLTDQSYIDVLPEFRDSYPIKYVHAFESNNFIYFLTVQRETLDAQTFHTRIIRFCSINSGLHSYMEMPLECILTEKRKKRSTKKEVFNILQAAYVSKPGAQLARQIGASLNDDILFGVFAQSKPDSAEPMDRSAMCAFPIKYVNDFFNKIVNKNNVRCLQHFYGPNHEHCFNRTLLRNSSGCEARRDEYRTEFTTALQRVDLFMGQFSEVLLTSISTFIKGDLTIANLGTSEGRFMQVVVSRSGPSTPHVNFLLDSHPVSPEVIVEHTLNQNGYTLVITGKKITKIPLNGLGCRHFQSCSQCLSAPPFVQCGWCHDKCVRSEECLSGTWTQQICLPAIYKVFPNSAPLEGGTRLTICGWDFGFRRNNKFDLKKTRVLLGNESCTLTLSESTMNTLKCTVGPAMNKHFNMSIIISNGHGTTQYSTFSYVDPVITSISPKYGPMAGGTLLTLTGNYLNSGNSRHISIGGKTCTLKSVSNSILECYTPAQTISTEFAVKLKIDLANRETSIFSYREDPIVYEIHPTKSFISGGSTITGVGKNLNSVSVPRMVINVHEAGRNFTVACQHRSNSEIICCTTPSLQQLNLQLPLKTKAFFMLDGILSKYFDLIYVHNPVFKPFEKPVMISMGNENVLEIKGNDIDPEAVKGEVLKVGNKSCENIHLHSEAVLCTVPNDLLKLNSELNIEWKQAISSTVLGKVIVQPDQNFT
Assay: SPR, Fab-containing periplasmic extract over immobilised c-Met, dissociation 2 min
Experimental: HGF-competing clones were sequenced in the VH and the VL regions and divided into VH families based on the sequence of the CDR3 in the VH. These VH families were further tested with Surface Plasmon Resonance (SPR) for dissociation (koff) and recognition of SEMA-PSI or the extracellular domain of c-Met (Decoy). Between 1000-2000 RU of dimeric c-Met, SEMA-PSI or Decoy c-Met was immobilised on a VIA chip with amine coupling in sodium acetate buffer (pH 4.5). The Fab-containing peris were added with a flow rate of 30 μl/min and Fabs were considered to be binding if an increase of the RU was observed. The koff was measured for 2 minutes for each sample.

Compared with B1, B2 is 53-fold lower in koff: 0.0069 s⁻¹ for the first, 0.00013 s⁻¹ for the second.

With B3 the koff was 0.00065 s⁻¹.

Target: T1, recombinant dimeric c-Met (R&D systems, …)
Assay: SPR, periplasmic Fab over Fc-Met (around 3000 RU) on CM5 chip
Experimental: The clones were then tested for their dissociation constants by Surface Plasmon Resonance. Around 3000 RU of Fc-Met was immobilized directly onto a CM5 chip to obtain a clear binding profile from the periplasmic extracts. Clones with an improved off-rate were sent for sequencing.

First: B4
Second: B5
The koff of the first is 4.8-fold lower: 0.00017 s⁻¹ for the first, 0.00082 s⁻¹ for the second.

Compared with B6, B7 is 3.5-fold lower in koff: 0.00063 s⁻¹ for the first, 0.00018 s⁻¹ for the second.

B8 and B9 are within 1.5-fold of each other in koff: 0.00017 s⁻¹ for the first, 0.00019 s⁻¹ for the second.

First: B10
Second: B11
The koff of the first is 2.8-fold higher: 0.00048 s⁻¹ for the first, 0.00017 s⁻¹ for the second.

Compared with B12, B13 is 3.2-fold lower in koff: 0.00081 s⁻¹ for the first, 0.00025 s⁻¹ for the second.

First: B14
Second: B15
The koff of the first is 1.6-fold lower: 0.00012 s⁻¹ for the first, 0.00019 s⁻¹ for the second.

First: B16
Second: B17
The koff of the first is 2.2-fold lower: 0.00013 s⁻¹ for the first, 0.00029 s⁻¹ for the second.

B18 and B19 are the same in koff: 0.00033 s⁻¹ for the first, 0.00033 s⁻¹ for the second.

B20 was tested, and the koff was 0.00025 s⁻¹.
